# Measured values as given in paper PMC11730255 (Molecular Therapy Oncology, 2024).
# T1: rhB7-H6 biotinylated Fc fusion protein (human, UniProt Q68D85 25-262, biotin)
# T1 construct: B7-H6 (natural cytotoxicity triggering receptor 3 ligand 1), human; supplier named under library sorting; the BLI methods say only 'B7-H6'; source: bought: R&D Systems
# T1 sequence (looked up): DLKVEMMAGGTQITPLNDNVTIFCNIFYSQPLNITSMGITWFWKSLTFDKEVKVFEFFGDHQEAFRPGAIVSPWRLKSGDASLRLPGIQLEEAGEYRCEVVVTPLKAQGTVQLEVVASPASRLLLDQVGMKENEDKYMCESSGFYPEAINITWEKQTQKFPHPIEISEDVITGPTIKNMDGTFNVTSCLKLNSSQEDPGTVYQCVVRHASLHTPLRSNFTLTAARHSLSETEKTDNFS
# Target: T1, rhB7-H6 biotinylated Fc fusion protein
# Test: BLI; competition/epitope binning: antibodies coupled on activated ARG2G biosensors, first association with NKp30 3 min, second association 3 min with B7-H6 or the other NKp30 binders; both orientations, 25 C
# Settings: both partners purified
binder,measurement,value
"Recombinant human His-tagged ECD of NKp30 (receptor, UniProt O14931 19-135, looked up, NKp30 (natural cytotoxicity triggering receptor 3), human, extracellular domain; supplier named under library sorting; also called rhNKp30; NKp30 His-tagged protein; source: bought: ACROBiosystems) LWVSQPPEIRTLEGSSAFLPCSFNASQGRLAIGSVTWFRDEVVPGKEVRNGTPEFRGRLAPLASSRFLHDHQAELHIRDVRGHDASIYVCRVEVLGLGVGTGNGTRLVVEKEHPQLG",binding result,binds
